Measured values as given in patent publication US20240166755A1, “CHIMERIC ANTIGEN RECEPTORS TARGETING CANCER” (University of Southern California, priority 2016, published 2024).

B1: CD8SP-AB317-(vL-vH)-Myc-CD28z-T2A-PAC(031615-T04): CAR construct targeting MPL, AB317 scFv, CD28 costimulatory domain (protein)
chain: MALPVTALLLPLALLLHAARPDIVLTQSPASLAVSLGQSVTISCRASESVEYYGTSLMQWYQQKPGQPPKLLIYGASNVESGVPARFSGSGSGTDFSLNIHPVEEDDIAMYFCQQSRKVPWTFGGGTKLEIKGGGGSGGGGSGGGGSEVKLVESGGGLVKPGGSRKLSCAASGFTFSSYTMSWVRQTPAKRLEWVATISSGSSTIYYADTVKGRFTISRDNAKNTLFLQMTSLRSEDTAMYYCARRWFLDCWGQGTTLTVSSTREQKLISEEDLKIEVMYPPPYLDNEKSNGTIIHVKGKHLCPSPLFPGPSKPFWVLVVVGGVLACYSLLVTVAFIIFWVRSKRSRLLHSDYMNMTPRRPGPTRKHYQPYAPPRDFAAYRSRVKFSRSADAPAYQQGQNQLYNELNLGRREEYDVLDKRRGRDPEMGGKPRRKNPQEGLYNELQKDKMAEAYSEIGMKGERRRGKGHDGLYQGLSTATKDTYDALHMQALPPRSSGSGEGRGSLLTCGDVEENPGPHMTEYKPTVRLATRDDVPRAVRTLAAAFADYPATRHTVDPDRHIERVTELQELFLTRVGLDIGKVWVADDGAAVAVWTTPESVEAGAVFAEIGPRMAELSGSRLAAQQQMEGLLAPHRPKEPAWFLATVGVSPDHQGKGLGSAVVLPGVEAAERAGVPAFLETSAPRNLPFYERLGFTVTADVEVPEGPRTWCMTRKPGA
modifications: listed as DNA
B2: CD8SP-178-(vL-vH)-Myc-CD28z-T2A-PAC(031615-R04): CAR construct targeting MPL, 178 scFv, CD28 costimulatory domain (protein)
chain: MALPVTALLLPLALLLHAARPDIVMTQAAPSIPVTPGESVSISCRSDKSLLHSNGNTYLFWFLQRPGQSPQLLIYRMSNLASGVPDRFSGSGSGTAFTLRISGVEAEDVGVYYCMQHLEYPYTFGGGTKLEIKGGGGSGGGGSGGGGSQVQLQQSGPELVKPGASVKMSCKASGYAFSSSWLNWVRQRPGKGLEWIGRIYPGDGENHYNGKFKGKATLTADKSSSTGYMQLSSLTSEDSAVYFCASYYEGGYWGQGTLITVSATREQKLISEEDLKIEVMYPPPYLDNEKSNGTIIHVKGKHLCPSPLFPGPSKPFWVLVVVGGVLACYSLLVTVAFIIFWVRSKRSRLLHSDYMNMTPRRPGPTRKHYQPYAPPRDFAAYRSRVKFSRSADAPAYQQGQNQLYNELNLGRREEYDVLDKRRGRDPEMGGKPRRKNPQEGLYNELQKDKMAEAYSEIGMKGERRRGKGHDGLYQGLSTATKDTYDALHMQALPPRSSGSGEGRGSLLTCGDVEENPGPHMTEYKPTVRLATRDDVPRAVRTLAAAFADYPATRHTVDPDRHIERVTELQELFLTRVGLDIGKVWVADDGAAVAVWTTPESVEAGAVFAEIGPRMAELSGSRLAAQQQMEGLLAPHRPKEPAWFLATVGVSPDHQGKGLGSAVVLPGVEAAERAGVPAFLETSAPRNLPFYERLGFTVTADVEVPEGPRTWCMTRKPGA
modifications: listed as DNA
B3: CD8SP-MPL-VB22Bw4-(vL-vH)-Myc-CD28z-T2A-PAC(031615-B06): CAR construct targeting MPL, VB22Bw4 scFv, CD28 costimulatory domain (protein)
chain: MALPVTALLLPLALLLHAARPDDIVMTQSPLSLPVTPGEPASISCRSSKSLLHSNGNTYLYWFLQKPGQSPQLLIYRMSNLASGVPDRFSGSGSGTDFTLKISRVEAEDVGVYYFMQHIEYPFTFGQGTKLEIKGGGGSGGGGSGGGGSQVQLVQSGPEVKKPGASVKVSCKASGYTFTNSWMNWVRQRPGKGLEWIGRIYPGDGETIYNGKFRVRVTITADESTSTAYMQLSSLRSEDTAVYYCARGYDDYSFAYWGQGTTVTVSSTREQKLISEEDLKIEVMYPPPYLDNEKSNGTIIHVKGKHLCPSPLFPGPSKPFWVLVVVGGVLACYSLLVTVAFIIFWVRSKRSRLLHSDYMNMTPRRPGPTRKHYQPYAPPRDFAAYRSRVKFSRSADAPAYQQGQNQLYNELNLGRREEYDVLDKRRGRDPEMGGKPRRKNPQEGLYNELQKDKMAEAYSEIGMKGERRRGKGHDGLYQGLSTATKDTYDALHMQALPPRSSGSGEGRGSLLTCGDVEENPGPHMTEYKPTVRLATRDDVPRAVRTLAAAFADYPATRHTVDPDRHIERVTELQELFLTRVGLDIGKVWVADDGAAVAVWTTPESVEAGAVFAEIGPRMAELSGSRLAAQQQMEGLLAPHRPKEPAWFLATVGVSPDHQGKGLGSAVVLPGVEAAERAGVPAFLETSAPRNLPFYERLGFTVTADVEVPEGPRTWCMTRKPGA
modifications: listed as DNA
B4: CD8SP-12E10-(vL-vH)-Myc-CD28z-T2A-PAC(031615-S03): CAR construct targeting MPL, 12E10 scFv, CD28 costimulatory domain (protein)
chain: MALPVTALLLPLALLLHAARPDQVQLQQSGPGLVKPSETLSLTCTVSGDSISSYYWSWIRQPPGKGLEWIGYIYYSGSTNYNPSLKSRVTISVDTSKSQFSLKLSSVTAADTAVYYCARGRYFDVWGRGTMVTSSGGGGSGGGGSGGGGSSSYVLTQPPSVSGSPGQSITISCTGTSSDVGGYNYVSWYQQHPGKAPKLMIYEGSKRPSGVSNRFSGSKSGNTASLTISGLQAEDEADYYCSSYTTRSTRVFGGGTKLTVLGAAATREQKLISEEDLKIEVMYPPPYLDNEKSNGTIIHVKGKHLCPSPLFPGPSKPFWVLVVVGGVLACYSLLVTVAFIIFWVRSKRSRLLHSDYMNMTPRRPGPTRKHYQPYAPPRDFAAYRSRVKFSRSADAPAYQQGQNQLYNELNLGRREEYDVLDKRRGRDPEMGGKPRRKNPQEGLYNELQKDKMAEAYSEIGMKGERRRGKGHDGLYQGLSTATKDTYDALHMQALPPRSSGSGEGRGSLLTCGDVEENPGPHMTEYKPTVRLATRDDVPRAVRTLAAAFADYPATRHTVDPDRHIERVTELQELFLTRVGLDIGKVWVADDGAAVAVWTTPESVEAGAVFAEIGPRMAELSGSRLAAQQQMEGLLAPHRPKEPAWFLATVGVSPDHQGKGLGSAVVLPGVEAAERAGVPAFLETSAPRNLPFYERLGFTVTADVEVPEGPRTWCMTRKPGA
modifications: listed as DNA

tested on: HEL cells stably expressing GLuc; assay: GLuc cell death assay, HEL-GLuc target cells; settings: T cells, puromycin selected, E:T 10:1, 4 hours
Method: The blood samples to isolate Peripheral blood mononuclear cells (PBMCs) were obtained from healthy de-identified adult donors. PBMC were isolated from buffy coats by Ficoll-Hypaque gradient centrifugation and re-suspended in XVIVO medium (Lonza) supplanted with 10 ng/ml soluble anti-CD3, 10 ng/ml soluble anti-CD28 and 100 IU recombinant human-IL2. […] The PBMC expressing the indicated CARs and uninfected PBMC were co-cultured with HEL-GLuc target cells for 4 h and lysis of target cells measured by the single-step homogenous GLuc assay by injecting 0.5× CTZ assay buffer as described above.
Cells were selected with puromycin and expanded.
Cells were subsequently co-cultured overnight with HEL.92.1.7 cells that had been engineered to express GLuc.

Molecule | GLuc activity (lysis of target cells)
B1 | stronger
B2 | modest

tested on: Jurkat cells stably expressing MPL and GLuc; assay: GLuc cell death assay, Jurkat-MPL-GLuc target cells; settings: T cells, puromycin selected, E:T 10:1, 4 hours

Molecule | GLuc activity (lysis of target cells)
B1 | stronger
B2 | modest
B3 | modest
B4 | stronger
